Laboratory results: patent US20220332804A1 (CSL INNOVATION, published 2022)
Where a chain is given by its changes, count along the chain named.

Columns and labels:
Test in all cases: SPR, KD relative to WT C2;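 also: biacore SPR at 37 °C, anti-C2 mAbs captured on anti-human IgG chips with alanine or serine point mutants of C2 as analyte, KD from 1:1 fit compared with wild-type C2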
human C2 D417A = target: T1, human C2 D417A (human, UniProt P06681 21-752)
T1 sequence: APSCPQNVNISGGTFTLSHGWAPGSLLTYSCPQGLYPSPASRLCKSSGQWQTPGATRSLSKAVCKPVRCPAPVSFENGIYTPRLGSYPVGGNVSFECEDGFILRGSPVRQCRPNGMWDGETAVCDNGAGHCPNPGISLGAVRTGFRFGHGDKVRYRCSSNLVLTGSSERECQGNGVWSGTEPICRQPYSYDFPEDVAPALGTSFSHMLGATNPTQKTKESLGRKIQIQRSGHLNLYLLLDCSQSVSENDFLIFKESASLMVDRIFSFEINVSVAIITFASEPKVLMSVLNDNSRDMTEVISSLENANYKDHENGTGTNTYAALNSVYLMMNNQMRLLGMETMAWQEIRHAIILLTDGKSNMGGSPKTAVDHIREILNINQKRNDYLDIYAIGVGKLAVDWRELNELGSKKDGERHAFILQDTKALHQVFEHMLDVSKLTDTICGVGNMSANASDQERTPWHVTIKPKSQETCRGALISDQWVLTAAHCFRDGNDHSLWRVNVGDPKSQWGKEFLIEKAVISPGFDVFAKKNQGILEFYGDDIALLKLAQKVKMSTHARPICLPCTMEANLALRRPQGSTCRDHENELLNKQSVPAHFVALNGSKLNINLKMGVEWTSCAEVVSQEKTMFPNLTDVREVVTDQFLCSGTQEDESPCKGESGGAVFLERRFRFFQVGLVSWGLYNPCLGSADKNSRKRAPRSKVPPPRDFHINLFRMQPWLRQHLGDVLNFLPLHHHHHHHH

human C2 N268A = target: T2, human C2 N268A (human, UniProt P06681 21-752)
T2 sequence: T1 sequence with N248A, A397D

[1] = target: T3, human complement C2 (wild type) (human, UniProt P06681 21-752)
T3 construct: Full-length human C2 (NP_000054) with C-terminal 8x His tag, secreted from Expi293F cells and purified from the supernatant; also called WT; huC2
T3 sequence: T1 sequence with A397D

B1: RF16-242 (antibody, human IgG4 S228P, lambda, V domains shown)
VH: EVQLLQSGAEVKKPGESLKISCKGSGYSFTSYWIGWVRQMPGKGLEWMGIIYPGDSDTRYSPSFQGQVTISADKSISTAYLQWSSLKASDTAMYYCARRGHYGDYFDYWGQGTLVTVSS
VL: SYELTQPPSVSVSPGQTARITCSGDALPKKYAYWYHQKSGQAPVLVIYEDRRRPSEIPERFSGSSSGTMATLTITGAQVEDEGVYFCYSRDRAGNQRVFGGGTQLTVLG
notes: pH-dependent anti-C2 antibody from a phage display library
Fold diff (human C2 D417A): 3 fold
Fold diff (human C2 N268A): 2 fold
Fold diff [1]: 1 fold
